Test [1] has as its target T1, C5aR transfected into CHEM-1 cells using the pHS vector (UniProt P21730 1-350).
T1 chain: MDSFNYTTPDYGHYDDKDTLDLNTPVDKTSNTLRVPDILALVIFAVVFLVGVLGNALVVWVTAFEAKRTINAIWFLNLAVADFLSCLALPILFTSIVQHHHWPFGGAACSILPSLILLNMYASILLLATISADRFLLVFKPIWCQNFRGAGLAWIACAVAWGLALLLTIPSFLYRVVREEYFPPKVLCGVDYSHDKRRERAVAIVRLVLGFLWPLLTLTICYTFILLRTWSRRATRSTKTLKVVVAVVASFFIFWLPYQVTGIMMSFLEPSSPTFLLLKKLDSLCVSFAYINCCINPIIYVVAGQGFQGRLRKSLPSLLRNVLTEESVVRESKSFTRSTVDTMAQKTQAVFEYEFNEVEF
Put plainly: binding.

Test [2] concerns the target C5aR+Gα15/CHO. Put plainly: binding; two sites, site 1.
Test [3] concerns the target C5aR+Gα15/CHO. The test is described as follows: binding; two sites, site 2.

B1: C5a (ligand)
chain: TLQKKIEEIAAKYKHSVVKKCCYDGACVNNDETCEQRAARISLGPRCIKAFTECCVVASQLRANISHKDMQLGR
As to B1, the Ki in test [1] was 0.5 nM; in the test with C5aR+Gα15/CHO [2], 0.6 nM; with C5aR+Gα15/CHO [3], 34 nM.

The term Ki denotes the equilibrium dissociation constant of an inhibitor or competing ligand from its target. The low end stands for a stronger hold on the target, the high end for a looser hold on the target.

The values are drawn from patent US20060141569A1 (published 2006).
